# US11541126B1, “Anti-ASGR1 antibody TLR8 agonist comprising conjugates and uses thereof” (Silverback Therapeutics, Inc., priority 2020, dated 2023)
# B1: hzH8K-1: "humanized anti-ASGR1 antibodies hzH8K-1 and hzH8K-10 as compared to parent mouse anti-ASGR1 antibody H8K" (antibody, V domains shown)
# VH: QVQLQESGPGLVKPSQTLSLTCTVSGGSISSDYAWNWIRQHPGKGLEWIGYRSYRGSTSYNPSLKSRVTISVDTSKNQFSLKLSSVTAADTAVYYCARRGYYGSSSHWYFDVWGQGTTVTVSS
# VL: DIQMTQSPSSLSASVGDRVTITCRASENIYSYLAWYQQKPGKAPKLLIYNAKTLAEGVPSRFSGSGSGTDFTLTISSLQPEDFATYYCQHHYGTPLTFGGGTKVEIK
# modifications: Synthetic sequence hzH8K VH; Synthetic sequence hzH8K VL
# B2: hzL4L-7: "humanized anti-ASGR1 antibodies hzL4L-7 and hzL4L-14 as compared to parent mouse anti-ASGR1 antibody L4L" (antibody, V domains shown)
# VH: QVQLQESGPGLVKPSQTLSLTCTVSGYSISSDYAWNWIRQHPGKGLEWIGYISYSGSTRYNPSLKSRVTITRDTSKNQFSLKLSSVTAADTAVYYCARRYRYDEGYGMDYWGQGTTVTVSS
# VL: DIQMTQSPSSLSASVGDRVTITCRASENIYSNLAWYQQKPGKAPKLLIYAATNLADGVPSRFSGSGSGTDFTLTISSLQPEDFATYYCQHFWGTPPWTFGGGTKVEIK
# modifications: human IgG1/kappa constant regions; Synthetic sequence hzL4.6L VH G27Y, S70T, V71R; Synthetic sequence hzL4L VL
# Key:
# [1] = test system: human PBMCs cultured with ASGR1-expressing tumor cell line HepG2; experiment: TNF-α production by human PBMC co-cultured with HepG2 (AlphaLISA); type: cell-based; details: PBMC:HepG2 5:1, 24 hours
# Experimental: The effect on TNF-α production by human PBMCs co-cultured with ASGR1 expressing HepG2 tumor cells and in the presence of anti-ASGR1-TLR8 agonist conjugates was examined. An increase in TNF-α production by human PBMCs would indicate that myeloid cells are being activated. Briefly, peripheral blood mononuclear cells (PBMC) were isolated from normal human donor blood using SEPMATE™-50 PBMC Isolation Tubes ([…] Technologies) according to manufacturer's instructions. Isolated PBMC were cultured with the ASGR1-expressing tumor cell line HepG2 or the ASGR1-negative cell line HEK 293 at a 5:1 ratio in the presence of titrated concentrations of anti-ASGR1-TLR8 agonist conjugates (G2D-Compound 2.14, J4F-Compound 2.14, K2E-Compound 2.14, L4L-Compound 2.14, hzL4L-7-Compound 2.14, hzL4L-14-Compound 2.14, H8K-Compound 2.14, hzH8K-1-Compound 2.14, and hzH8K-10-Compound 2.14, as well as control conjugates comprised of ASGR1-mAb-A-Compound 2.14, ASGR1-mAb-B-Compound 2.14, ASGR1-mAb-C-Compound 2.14, anti-digoxin mAb-Compound 2.14, and unconjugated antibody controls). After 24 hours, cell-free supernatants were collected and stored at −80° C. prior to analysis. TNF-α levels in the cell-free supernatants were quantified using the TNF-α (human) AlphaLISA® Detection Kit (Perkin Elmer) according to manufacturer's instructions.
# rat ASGR1 = target: T1, rat ASGR1 (Rattus norvegicus, UniProt P02706); experiment: Cell binding to rat ASGR1 transiently expressed by CHO-S cells (GUAVA); details: in words
# T1 construct: expressed in transfected cells; host or cells: CHO-S
# T1 sequence (P02706 1-284): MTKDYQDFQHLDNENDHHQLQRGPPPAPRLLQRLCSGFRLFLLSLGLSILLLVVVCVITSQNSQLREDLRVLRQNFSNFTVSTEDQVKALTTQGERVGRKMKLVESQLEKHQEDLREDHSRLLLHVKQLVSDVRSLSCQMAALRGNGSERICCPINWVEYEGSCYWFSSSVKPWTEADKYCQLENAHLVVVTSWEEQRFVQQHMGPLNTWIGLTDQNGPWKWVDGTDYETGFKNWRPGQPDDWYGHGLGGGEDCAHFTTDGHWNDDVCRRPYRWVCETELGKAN
# Experimental: Anti-human ASGR1 antibodies of this disclosure were examined for cross-reactivity with Cynomolgus macaque and rat ASGR1. Briefly, sequence encoding Cynomolgus macaque or rat ASGR1 was transiently transfected into CHO-S cells. Transfected cells were before performing cell binding assay. A total of about 1.5×10^4 transfected cells/well were added to 96-well V-bottom assay plate, incubated at 37° C., 5% CO2 for 48-72 hours, and then washed with culture medium before adding 100 μl of each ASGR1 antibody at different concentrations starting from 100 nM and 3-fold dilutions to a total of eight wells. The cells with antibody were incubated for 40 minutes at 4° C., then washed three times with 200 μl of fresh culture medium. To each well was added 50 μl PE conjugated goat anti-human Fc (SouthemBiotech) at 1:200 dilution in culture medium and then incubated at 4° C. for 20 minutes. After washing the plate once, the treated cells were resuspended in 200 μl culture medium and then the stained cells were analyzed on GUAVA® using Incyte software.
# rat CLEC10A ECD = target: T2, rat CLEC10A ECD (Rattus norvegicus, UniProt P49301); experiment: OCTET avidity binding to immobilized rat CLEC10A ECD; details: for Binding signal to rat CLEC10A ECD: in words; for Response, binding to rat CLEC10A ECD: test antibody at 25 μg/mL
# T2 construct: His-tagged rat CLEC10A ECD (R&D Systems) was immobilized to OCTET® Penta-His biosensors; purchased R&D Systems
# T2 sequence (P49301 59-306 limits assumed): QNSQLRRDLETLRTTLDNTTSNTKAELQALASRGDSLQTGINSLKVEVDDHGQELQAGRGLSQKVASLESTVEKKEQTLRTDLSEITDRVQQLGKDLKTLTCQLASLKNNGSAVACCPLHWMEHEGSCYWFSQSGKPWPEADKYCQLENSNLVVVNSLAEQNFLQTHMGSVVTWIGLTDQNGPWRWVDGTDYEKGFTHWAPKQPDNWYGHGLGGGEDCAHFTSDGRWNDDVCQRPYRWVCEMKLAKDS
# Experimental: Analysis of binding to the rat CLEC10A ECD was performed using the OCTET® Red 96 instrument (ForteBio). His-tagged rat CLEC10A ECD (R&D Systems) was immobilized to OCTET® Penta-His biosensors and subjected to avidity binding of test antibodies in kinetics buffer (PBS+1% BSA+0.2% Tween20+0.9 mM CaCl2) at pH 7.4) in the following steps: (1) hydration of Penta-His biosensors in kinetics buffer (10 min); (2) regeneration and neutralization of Penta-His biosensor in 10 mM glycine-HCl (pH 1.5) and kinetics buffer, respectively in triplicate; (3) baseline acquisition (30 s); (4) immobilization of rat CLEC10A ECD to Penta-His biosensors at a concentration of 10 μg/mL (180 s); (5) second baseline acquisition (60 s); (6) association of test antibody at 25 μg/mL (60 s); (7) dissociation in kinetics buffer (60 s).
# The interactions of test mAbs with rat CLEC10A ECD was analyzed using the OCTET® Data Analysis Software 9.0 (ForteBio).
# [2] = target: T3, human ASGR1 extracellular domain (ECD) (Homo sapiens, UniProt P07306); experiment: Effect of calcium on binding to human ASGR1 ECD (OCTET); design: key to Ca^2+ Sensitivity during: Association / Ca^2+ Sensitivity during: Dissociation / Ca^2+ Sensitivity: N = No; Y = Yes
# T3 sequence (P07306 62-291 limits assumed): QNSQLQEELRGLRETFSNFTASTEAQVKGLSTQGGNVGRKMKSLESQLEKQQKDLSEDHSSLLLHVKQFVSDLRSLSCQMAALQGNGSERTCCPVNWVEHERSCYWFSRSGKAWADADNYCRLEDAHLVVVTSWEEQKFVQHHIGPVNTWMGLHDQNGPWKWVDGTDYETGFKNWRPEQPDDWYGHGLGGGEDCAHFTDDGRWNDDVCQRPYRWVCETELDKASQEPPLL
# Experimental: The ability of anti-human ASGR1 antibodies of this disclosure to bind to human ASGR1 in the presence or absence of calcium in binding buffer was examined. Briefly, ASGR1 antibodies were bound to immobilized human ASGR1 extracellular domain (ECD) at saturating levels and subsequently dissociated under three different conditions as follows: (a) binding and dissociation with buffer containing calcium (PBS+1% BSA+0.2% Tween20+0.9 mM CaCl2), pH 7.4); (b) binding with buffer containing calcium and dissociation with buffer lacking calcium; and (c) binding and dissociation with buffer lacking calcium. Analysis of ASGR1 antibody binding to human ASGR1 ECD was performed using the OCTET® Red 96 instrument and analyzed using the OCTET®Data Analysis Software 9.0 (ForteBio). His-tagged human ASGR1 ECD was immobilized to OCTET® Penta-His biosensors and ASGR1 antibodies were subjected to avidity binding under the conditions described above. Association with the ASGR1 ECD was measured by the rate of and increase in magnitude of signal response at a given antibody concentration. Dissociation from the ASGR1 ECD was measured as the rate of loss in signal upon removal of the antibody and further incubation with or without Ca^2+. […] Also tested were humanized antibodies hzH8K-1 and hzL4L-7.
# Further analysis of the antibodies of this disclosure was to determine whether the presence of calcium was needed for binding (i.e., during association) of the antibodies to human ASGR1 ECD. […]
Molecule,TNF-α production from human PBMCs [1],Cross-reactivity with rat ASGR1 (rat ASGR1),Binding signal to rat CLEC10A ECD (rat CLEC10A ECD),"Response, binding to rat CLEC10A ECD (rat CLEC10A ECD)",Ca^2+ Sensitivity [2],Ca^2+ Sensitivity during: Association [2],Ca^2+ Sensitivity during: Dissociation [2],Sensitivity to calcium (difference in binding signal after dissociation >±10%) ([2]; in words)
B1,more efficient at inducing TNF-α production as compared to the parent antibody conjugates,not rat cross-reactive,even less above background binding,0.0495 nm,N,N,N,–
B2,more efficient at inducing TNF-α production as compared to the parent antibody conjugates,not rat cross-reactive,No observable binding signal,— (Antibodies tested with response of <0.02 nm were below the limit of detection (—)),N,N,N,lacking sensitivity to calcium
